Test results from PMC8458385, “Molecular basis for PICS-mediated piRNA biogenesis and cell division” (Nature Communications, 2021).

T1: ERH-2^1-103-(Gly-Ser-Ser)7-PICS-1^180-200 fusion protein (C. elegans, UniProt Q20057 1-103; O76616 180-200)
T1 construct: ERH-2, C. elegans, residues 1-103; 21-aa linker (Gly-Ser-Ser)7; PICS-1 (PID-3), C. elegans, EBM, residues 180-200; the methods describe only the 1-103 fusion; also called ERH-2-(GSS)7-PICS-1180-200; ERH-2-(GSS)7-PICS-1; source: E. coli BL21(DE3), purified (Ni-NTA, TEV cleavage, second Ni-NTA, Superdex 75); not shown: His tag (inferred from the Ni-NTA purification), N-terminal, cleaved
T1 chain: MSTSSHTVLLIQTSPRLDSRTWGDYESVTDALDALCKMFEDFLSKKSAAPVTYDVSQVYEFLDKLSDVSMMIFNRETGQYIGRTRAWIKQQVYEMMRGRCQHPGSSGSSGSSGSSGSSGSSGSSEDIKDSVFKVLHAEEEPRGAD

T2: ERH-2 (C. elegans, UniProt Q20057 1-113)
T2 construct: ERH-2, C. elegans, amplified from a cDNA library; also called ERH-2 wild type; source: E. coli BL21(DE3), purified (Ni-NTA, TEV cleavage, second Ni-NTA); not shown: His tag (inferred from the Ni-NTA purification), N-terminal, cleaved
T2 sequence (looked up): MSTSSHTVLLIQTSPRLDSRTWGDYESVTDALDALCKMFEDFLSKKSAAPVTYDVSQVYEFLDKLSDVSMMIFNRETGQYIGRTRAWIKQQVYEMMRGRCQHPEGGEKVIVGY

T3: TOFU-6 RRM domain (TOFU-6^RRM, residues 2-92) (C. elegans, UniProt Q09293 2-92)
T3 construct: TOFU-6, C. elegans, RRM domain, residues 2-92; source: E. coli BL21(DE3), purified (Ni-NTA, TEV cleavage, second Ni-NTA); not shown: His tag (inferred from the Ni-NTA purification), N-terminal, cleaved
T3 sequence (looked up): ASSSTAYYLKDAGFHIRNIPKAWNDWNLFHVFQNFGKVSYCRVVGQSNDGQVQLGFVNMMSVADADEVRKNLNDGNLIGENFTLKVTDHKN

T4: TOFU-6^RRM D26A/W27A (C. elegans, UniProt Q09293 2-92, D26A | W27A)
T4 construct: TOFU-6, C. elegans, RRM domain, residues 2-92, with D26A and W27A; Cloned into pET28-MHL; also called D26A/W27A(TOFU-6RRM); source: E. coli BL21(DE3), purified (Ni-NTA, TEV cleavage, second Ni-NTA); not shown: His tag (inferred from the Ni-NTA purification), N-terminal, cleaved
T4 sequence (looked up): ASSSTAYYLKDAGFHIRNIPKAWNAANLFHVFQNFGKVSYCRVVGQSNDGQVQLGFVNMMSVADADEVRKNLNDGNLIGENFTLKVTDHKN

T5: ERH-2 D67A (C. elegans, UniProt Q20057 1-113, D67A)
T5 construct: ERH-2, C. elegans, with D67A; Cloned into pET28-MHL; also called D67A(ERH-2); source: E. coli BL21(DE3), purified (Ni-NTA, TEV cleavage, second Ni-NTA); not shown: His tag (inferred from the Ni-NTA purification), N-terminal, cleaved
T5 sequence (looked up): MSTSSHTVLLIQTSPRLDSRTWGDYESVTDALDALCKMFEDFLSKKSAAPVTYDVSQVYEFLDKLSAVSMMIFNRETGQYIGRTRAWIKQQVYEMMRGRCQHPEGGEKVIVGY

B1: SUMO-PID-1^50-70 (domain or fragment, C. elegans, UniProt Q19541 50-70, looked up)
chain: TNLHRKVTLSDRFELAALGYE
notes: PID-1, C. elegans, residues 50-70; Fused to the C-terminus of SUMO; the Kds are for the SUMO fusion; also called PID-1 fragment; source: E. coli BL21(DE3), purified (Ni-NTA); not shown: SUMO, N-terminal, kept
B2: PICS-1(PID-3) RRM domain (PICS-1^RRM, residues 201-282) (domain or fragment, C. elegans, UniProt O76616 201-282, looked up)
chain: QENMLKISGYPGMLNTFGIAQLLTPYRVNGITITGAQSAVVALENKFQVYQAVQDFNGKKLDRNHKLQVSSLVVSSPAVPLE
notes: Homodimer by gel filtration and in the crystal structure; The methods describe co-expression with TOFU-6^RRM from pETDuet-1 for the complex; the results say that the two domains were purified each for ITC; also called WT; source: E. coli BL21(DE3), purified (Ni-NTA, TEV cleavage, second Ni-NTA, gel filtration); not shown: His tag (inferred from the Ni-NTA purification), N-terminal, cleaved
B3: PICS-1^RRM K246A/F247A (domain or fragment, C. elegans, UniProt O76616 201-282, looked up)
chain: QENMLKISGYPGMLNTFGIAQLLTPYRVNGITITGAQSAVVALENAAQVYQAVQDFNGKKLDRNHKLQVSSLVVSSPAVPLE
notes: Cloned into pET28-MHL; Some legends and the strain list print K245A/F246A for the transgene; also called K246A/F247A(PICS-1RRM); source: E. coli BL21(DE3), purified (Ni-NTA, TEV cleavage, second Ni-NTA); not shown: His tag (inferred from the Ni-NTA purification), N-terminal, cleaved
B4: PICS-1^RRM Y250A/Q251A (domain or fragment, C. elegans, UniProt O76616 201-282, looked up)
chain: QENMLKISGYPGMLNTFGIAQLLTPYRVNGITITGAQSAVVALENKFQVAAAVQDFNGKKLDRNHKLQVSSLVVSSPAVPLE
notes: Cloned into pET28-MHL; also called Y250A/Q251A(PICS-1RRM); source: E. coli BL21(DE3), purified (Ni-NTA, TEV cleavage, second Ni-NTA); not shown: His tag (inferred from the Ni-NTA purification), N-terminal, cleaved
B5: PICS-1^RRM F217E (domain or fragment, C. elegans, UniProt O76616 201-282, looked up)
chain: QENMLKISGYPGMLNTEGIAQLLTPYRVNGITITGAQSAVVALENKFQVYQAVQDFNGKKLDRNHKLQVSSLVVSSPAVPLE
notes: Cloned into pET28-MHL; also called F217E(PICS-1RRM); source: E. coli BL21(DE3), purified (Ni-NTA, TEV cleavage, second Ni-NTA, gel filtration); not shown: His tag (inferred from the Ni-NTA purification), N-terminal, cleaved
B6: SUMO-PICS-1^180-200 (ERH-2 binding motif, EBM) (domain or fragment, C. elegans, UniProt O76616 180-200, looked up)
chain: EDIKDSVFKVLHAEEEPRGAD
notes: Fused to the C-terminus of SUMO (pET28-SUMO); the Kds are for the SUMO fusion; also called PICS-1EBM; source: E. coli BL21(DE3), purified (Ni-NTA); not shown: SUMO, N-terminal, kept

Columns and labels:
[1] = molecular target: T1, ERH-2^1-103-(Gly-Ser-Ser)7-PICS-1^180-20 …; assay: ITC; MicroCal ITC200, 25 °C; 20 mM Tris pH 8.5, 200 mM NaCl or 20 mM MES pH 6.5, 200 mM NaCl; 1-2 mM protein or peptide in the syringe titrated into 30-50 μM protein in the cell; one-site model; Kd mean ± SD of a minimum of two experiments; conditions: both partners purified
ERH-2 = molecular target: T2, ERH-2; assay: as above; conditions: both partners purified
[2] = molecular target: the molecule itself; assay: SEC; gel filtration of PICS-1^RRM wild type and F217E alone, HiLoad 16/600 Superdex 75; 20 mM Tris, 200 mM NaCl (pH 8.5 in the methods, pH 7.5 in the legend)
[3] = molecular target: T3, TOFU-6 RRM domain (TOFU-6^RRM, residues …); assay: ITC; MicroCal ITC200, 25 °C; 20 mM Tris pH 8.5, 200 mM NaCl or 20 mM MES pH 6.5, 200 mM NaCl; 1-2 mM protein or peptide in the syringe titrated into 30-50 μM protein in the cell; one-site model; Kd mean ± SD of a minimum of two experiments; conditions: both partners purified
TOFU-6^RRM D26A/W27A = molecular target: T4, TOFU-6^RRM D26A/W27A; assay: as above; conditions: both partners purified
ERH-2 D67A = molecular target: T5, ERH-2 D67A; assay: as above; conditions: both partners purified

Row | Binder | stoichiometry N (ERH-2) | stoichiometry N [3] | Kd [3] [µM] | also measured
1 | B1 | 1 |  |  | stoichiometry N [1]: 1.3
2 | B2 |  | 1.1 |  | binding result [2]: binds; Kd (TOFU-6^RRM D26A/W27A): 30 µM; stoichiometry N (TOFU-6^RRM D26A/W27A): 0.7
3 | B3 |  | 1.1 | 17 | 
4 | B4 |  | 1.2 | 21 | 
5 | B5 |  | 0.7 |  | 
6 | B6 | 0.7 |  |  | stoichiometry N (ERH-2 D67A): 0.8
